Experimental data reported in US20260242478A1 (published 2026).

B1: Phage-999 (peptide)
peptide: YCDGHNGVYWWKCI
notes: tested as crude clonal phage supernatant
B2: Phage-979 (peptide)
peptide: YCDGHAEEYLLKCL
B3: Phage-973 (peptide)
peptide: YCEGHSWEHMEKCL
B4: Phage-972 (peptide)
peptide: YCDGHRVEYMAKCL
B5: Phage-958 (peptide)
peptide: YCSGHLPEYMWKCL
notes: as for B1
B6: Phage-960 (peptide)
peptide: YCDGHAQEYMVKCL
notes: as for B1
B7: Phage-964 (peptide)
peptide: YCEGHMPEYLQKCL
notes: as for B1
B8: Phage-1001 (peptide)
peptide: YCEGHSIQYMTKCL
notes: as for B1
B9: Phage-959 (peptide)
peptide: YCDGHSVEYKLKCM
notes: as for B1
B10: Phage-962 (peptide)
peptide: YCEGHLPLYMDKCL
notes: as for B1
B11: Phage-974 (peptide)
peptide: YCAGHSSEYIPKCL
B12: Phage-971 (peptide)
peptide: YCEGHSVEYIGKCL
B13: Phage-976 (peptide)
peptide: YCDGHAKEYIQKCL
B14: Phage-961 (peptide)
peptide: YCAGHSPEYMQKCL
notes: as for B1
B15: Phage-1007 (peptide)
peptide: YCAGHLPVYMDKCL
notes: as for B1
B16: Phage-1004 (peptide)
peptide: YCDGHAWQYMWKCL
notes: as for B1
B17: Phage-969 (peptide)
peptide: YCDGHSEAYMWKCL
notes: as for B1
B18: Phage-967 (peptide)
peptide: YCAGHLDQYIEKCL
notes: as for B1
B19: Phage-977 (peptide)
peptide: YCEGHLPQYMVKCL
B20: Phage-980 (peptide)
peptide: YCEGHLGIYMTKCL
B21: Phage-970 (peptide)
peptide: YCEGHADEYMWKCL
B22: Phage-1002 (peptide)
peptide: YCDGHLQIYMGKCL
notes: as for B1
B23: Phage-975 (peptide)
peptide: YCDGHLPQYLQKCT
B24: Phage-956 (peptide)
peptide: YCAGHSPQYMEKCL
B25: Phage-1000 (peptide)
peptide: YCDGHAPEYLTKCL
notes: as for B1
B26: Phage-966 (peptide)
peptide: YCDGHRLEYLEKCL
notes: as for B1
B27: Phage-978 (peptide)
peptide: YCQGHADEYMAKCL
B28: Phage-982 (peptide)
peptide: YCEGHSEEFMSKCL
B29: Phage-1005 (peptide)
peptide: YCDGHLPEYLAKCL
notes: as for B1
B30: Phage-957 (peptide)
peptide: YCDGHSVKYMAKCL
notes: as for B1
B31: Phage-963 (peptide)
peptide: YCEGHSAAYMQKCL
notes: as for B1
B32: Phage-981 (peptide)
peptide: YCDGHSWQYMWKCI
B33: Phage-998 (peptide)
peptide: YCEGHLGQYMEKCL
notes: as for B1
B34: Phage-1006 (peptide)
peptide: YCDGHLAVYMAKCL
notes: as for B1
B35: Phage-1003 (peptide)
peptide: YCDGHSVEYLDKCL
notes: as for B1
B36: Phage-955 (peptide)
peptide: YCDGHSPEYMLKCL
B37: Phage-965 (peptide)
peptide: YCDGHELQYMAKCL
notes: as for B1
B38: Phage-968 (peptide)
peptide: YCDGHAQEFIWKCL
notes: as for B1
B39: Phage-997 (peptide)
peptide: YCEGHAPVYMFKCL
notes: as for B1
B40: Phage-1008 (peptide)
peptide: YCEGHSAMYIWKCL
notes: as for B1

What was measured:
[1] = biological target: T1, Anti-CD28 Fab (SEQ ID NOs: 696, 697); assay: phage ELISA; clonal phage on plate-captured anti-CD28 Fab pre-incubated with CD28 antigen as competitor
T1 construct: Biotinylated and captured on neutravidin coated plates in the phage ELISA
T1 sequence (VH, as listed by the source, chain 1 of 2): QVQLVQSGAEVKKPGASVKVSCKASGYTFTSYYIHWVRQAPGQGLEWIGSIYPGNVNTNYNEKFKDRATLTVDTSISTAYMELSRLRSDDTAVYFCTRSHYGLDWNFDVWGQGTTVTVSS
T1 sequence (VL, as listed by the source, chain 2 of 2): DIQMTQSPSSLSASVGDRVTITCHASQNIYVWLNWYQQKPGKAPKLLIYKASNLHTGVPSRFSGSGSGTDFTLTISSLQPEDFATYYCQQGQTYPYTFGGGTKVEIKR
Procedure: (§1) After panning, phage infected bacteria were plated out and colonies picked into 96 well blocks. Clonal phage was then amplified and separated from bacterial cells via centrifugation.
(§2) Clonal phage were harvested as crude supematants and screened via standard ELISAs. […] Prior to the addition of clonal phage, wells were incubated with blocking buffer and CD28 antigen or blocking buffer alone. Without washing or aspirating, clonal phage supematants were then added to the wells and incubated for a short time. Wells were then washed followed by detection of bound phage using a horse radish conjugated anti-M13 antibody. Clonal phage of interest were then sent for sequence analysis.

[2] = biological target: T1, Anti-CD28 Fab (SEQ ID NOs: 696, 697); assay: phage ELISA; clonal phage on plate-captured biotinylated anti-CD28 Fab, anti-M13 HRP detection
Procedure: as §1, §2

[3] = biological target: T2, Anti-CD28 Fab (SEQ ID NOs: 696, 697); assay: phage ELISA on plate-captured anti-CD28 Fab pre-incubated with CD28 antigen (competitor: CD28)
T2 construct: Biotinylated and captured on neutravidin coated plates in the phage ELISA
T2 sequence (VH, as listed by the source, chain 1 of 2): as the sequence (VH, as listed by the source, chain 1 of 2) above
T2 sequence (VL, as listed by the source, chain 2 of 2): as the sequence (VL, as listed by the source, chain 2 of 2) above
Procedure: as §1, §2

[4] = biological target: T2, Anti-CD28 Fab (SEQ ID NOs: 696, 697); assay: phage ELISA, clonal phage on plate-captured biotinylated anti-CD28 Fab, anti-M13 HRP detection
Procedure: as §1, §2

[5] = biological target: T3, Anti-CD28 Fab (SEQ ID NOs: 696, 697); assay: phage binding ELISA, clonal phage on biotinylated anti-CD28 Fab captured on neutravidin plates;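 also: crude clonal phage supernatants added to wells pretreated with CD28 antigen or blocking buffer only, bound phage detected by HRP-linked anti-M13 antibody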
T3 construct: In the phage ELISA the Fab was biotinylated and captured on neutravidin coated plates
T3 sequence (VH, as listed by the source, chain 1 of 2): as the sequence (VH, as listed by the source, chain 1 of 2) above
T3 sequence (VL, as listed by the source, chain 2 of 2): as the sequence (VL, as listed by the source, chain 2 of 2) above
Procedure: as §1, §2

[6] = biological target: T3, Anti-CD28 Fab (SEQ ID NOs: 696, 697); assay: phage binding ELISA on captured anti-CD28 Fab, wells pre-incubated with CD28 antigen as competitor;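 also: crude clonal phage supernatants added to wells preloaded with CD28 antigen, bound phage read by HRP-conjugated anti-M13 antibody, control wells got blocking buffer alone without CD28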
[7] = biological target: T4, Anti-CD28 Fab (SEQ ID NOs: 696, 697); assay: phage ELISA; biotinylated anti-CD28 Fab on neutravidin plate, clonal phage supernatant, anti-M13 HRP
T4 construct: Biotinylated and captured on neutravidin coated plates in the phage ELISA
T4 sequence (VH, as listed by the source, chain 1 of 2): as the sequence (VH, as listed by the source, chain 1 of 2) above
T4 sequence (VL, as listed by the source, chain 2 of 2): as the sequence (VL, as listed by the source, chain 2 of 2) above

[8] = biological target: T4, Anti-CD28 Fab (SEQ ID NOs: 696, 697); assay: phage ELISA; captured anti-CD28 Fab pre-incubated with CD28 antigen as competitor, anti-M13 HRP;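 also: crude clonal phage supernatants added without washing after CD28 pre-incubation, bound phage detected with HRP anti-M13 antibody, reference wells got blocking buffer lacking CD28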
Procedure: as §1, §2

Row | Binder | Phage binding ELISA, Anti-CD28 Fab signal in the presence of CD28 [1] | Phage binding ELISA, Anti-CD28 Fab signal [2] | Anti-CD28 Fab signal in the presence of CD28 (phage binding ELISA) [3] | Anti-CD28 Fab signal (phage binding ELISA) [4] | Anti-CD28 Fab (SEQ ID NOs: 696, 697) signal [5] | Anti-CD28 Fab signal in the presence of CD28 [6] | further results
1 | B1 | 0.07 | 1.53 | – | – | – | – | –
2 | B2 | – | – | 0.05 | 1.57 | – | – | –
3 | B3 | – | – | 0.06 | 1.58 | – | – | –
4 | B4 | – | – | 0.09 | 1.58 | – | – | –
5 | B5 | – | – | – | – | 1.61 | 0.1 | –
6 | B6 | – | – | – | – | 1.61 | 0.06 | –
7 | B7 | – | – | – | – | 1.6 | 0.1 | –
8 | B8 | 0.13 | 1.53 | – | – | – | – | –
9 | B9 | – | – | – | – | 1.61 | 0.06 | –
10 | B10 | – | – | – | – | 1.6 | 0.08 | –
11 | B11 | – | – | 0.09 | 1.58 | – | – | –
12 | B12 | – | – | 0.07 | 1.59 | – | – | –
13 | B13 | – | – | 0.06 | 1.58 | – | – | –
14 | B14 | – | – | – | – | 1.6 | 0.08 | –
15 | B15 | 0.08 | 1.52 | – | – | – | – | –
16 | B16 | 0.07 | 1.53 | – | – | – | – | –
17 | B17 | – | – | – | – | 1.59 | 0.07 | –
18 | B18 | – | – | – | – | 1.6 | 0.1 | –
19 | B19 | – | – | 0.07 | 1.58 | – | – | –
20 | B20 | – | – | 0.08 | 1.57 | – | – | –

Row | Binder | Phage binding ELISA, Anti-CD28 Fab signal in the presence of CD28 [1] | Phage binding ELISA, Anti-CD28 Fab signal [2] | Anti-CD28 Fab signal in the presence of CD28 (phage binding ELISA) [3] | Anti-CD28 Fab signal (phage binding ELISA) [4] | Anti-CD28 Fab (SEQ ID NOs: 696, 697) signal [5] | Anti-CD28 Fab signal in the presence of CD28 [6] | further results
21 | B21 | – | – | 0.06 | 1.59 | – | – | –
22 | B22 | 0.06 | 1.53 | – | – | – | – | –
23 | B23 | – | – | 0.07 | 1.58 | – | – | –
24 | B24 | – | – | – | – | – | – | Phage binding ELISA, Anti-CD28 Fab signal [7]: 1.61; Phage binding ELISA, Anti-CD28 Fab signal in the presence of CD28 [8]: 0.06
25 | B25 | 0.06 | 1.53 | – | – | – | – | –
26 | B26 | – | – | – | – | 1.6 | 0.06 | –
27 | B27 | – | – | 0.08 | 1.58 | – | – | –
28 | B28 | – | – | 0.08 | 1.57 | – | – | –
29 | B29 | 0.06 | 1.52 | – | – | – | – | –
30 | B30 | – | – | – | – | 1.61 | 0.06 | –
31 | B31 | – | – | – | – | 1.6 | 0.09 | –
32 | B32 | – | – | 0.09 | 1.57 | – | – | –
33 | B33 | 0.08 | 1.54 | – | – | – | – | –
34 | B34 | 0.08 | 1.52 | – | – | – | – | –
35 | B35 | 0.08 | 1.53 | – | – | – | – | –
36 | B36 | – | – | – | – | – | – | Phage binding ELISA, Anti-CD28 Fab signal [7]: 1.61; Phage binding ELISA, Anti-CD28 Fab signal in the presence of CD28 [8]: 0.07
37 | B37 | – | – | – | – | 1.6 | 0.08 | –
38 | B38 | – | – | – | – | 1.6 | 0.1 | –
39 | B39 | 0.08 | 1.54 | – | – | – | – | –
40 | B40 | 0.1 | 1.52 | – | – | – | – | –
